The values below are quoted from earlier work in article PMC3433420.

Where two headings read alike, the source gives them in different places.

Some targets named below: SH2B3 (Homo sapiens) (UniProt Q9UQQ2); SRC (Homo sapiens) (UniProt P12931); SYK-C (Homo sapiens) (UniProt P43405); PLCG1-C (Homo sapiens) (UniProt P19174); SYK-NC (Homo sapiens) (UniProt P43405); SH2B2 (Homo sapiens) (UniProt O14492); ITK (Homo sapiens) (UniProt Q08881); SUPT6H (Homo sapiens) (UniProt Q7KZ85); RASA1-N (Homo sapiens) (UniProt P20936); TENC1 (Homo sapiens) (UniProt Q63HR2); VAV1 (Homo sapiens) (UniProt P15498); NCK2 (Homo sapiens) (UniProt O43639); PIK3R2-N (Homo sapiens) (UniProt O00459); GRB7 (Homo sapiens) (UniProt Q14451); PLCG2-NC (Homo sapiens) (UniProt P16885); SHF (Homo sapiens) (UniProt Q7M4L6); TNS3 (Homo sapiens) (UniProt Q68CZ2); SHD (Homo sapiens) (UniProt Q96IW2); PTPN6-C (Homo sapiens) (UniProt P29350); BMX (Homo sapiens) (UniProt P51813).

What all share (settings): cited from earlier work
Series [1] deals with PIK3R3-NC (Homo sapiens) (UniProt Q92569).
Series [2] concerns the target SLA (Homo sapiens) (UniProt Q13239).
The target in series [3] is PIK3R1-NC (Homo sapiens) (UniProt P27986).
Sequence of PIK3R1-NC (Homo sapiens) (P27986 328-723): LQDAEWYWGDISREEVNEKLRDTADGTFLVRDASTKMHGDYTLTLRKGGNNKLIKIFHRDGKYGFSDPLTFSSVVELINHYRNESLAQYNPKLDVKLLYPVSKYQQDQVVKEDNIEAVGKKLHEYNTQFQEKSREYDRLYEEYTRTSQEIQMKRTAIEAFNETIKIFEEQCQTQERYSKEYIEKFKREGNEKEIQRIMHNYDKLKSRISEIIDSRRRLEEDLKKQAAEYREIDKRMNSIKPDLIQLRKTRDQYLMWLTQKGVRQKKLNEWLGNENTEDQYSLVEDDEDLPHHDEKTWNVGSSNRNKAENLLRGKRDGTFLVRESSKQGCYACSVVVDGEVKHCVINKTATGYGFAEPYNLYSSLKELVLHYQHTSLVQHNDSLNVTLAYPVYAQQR
Series [4] concerns the target SHC1-PTB (Homo sapiens) (UniProt P29353).
Series [5] deals with SHC2-PTB (Homo sapiens) (UniProt P98077).
Sequence of SHC2-PTB (Homo sapiens) (P98077 482-582): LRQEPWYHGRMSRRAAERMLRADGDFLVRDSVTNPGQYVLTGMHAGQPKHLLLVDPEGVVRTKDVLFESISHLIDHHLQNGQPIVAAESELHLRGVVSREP
Series [6] has as its target SLA (Homo sapiens) (UniProt Q13239). This is another data set of the same source.
Series [7] concerns the target PIK3R3-NC (Homo sapiens) (UniProt Q92569). The source holds these as a separate data set.
For series [8], the target named is PIK3R1-NC (Homo sapiens) (UniProt P27986). The source holds these as a separate data set.
In series [9] the target is SHC2-PTB (Homo sapiens) (UniProt P98077). The source holds these as a separate data set.
Series [10] deals with SHC1-PTB (Homo sapiens) (UniProt P29353). The source holds these as a separate data set.
Sequence of SHC1-PTB (Homo sapiens) (P29353 483-583): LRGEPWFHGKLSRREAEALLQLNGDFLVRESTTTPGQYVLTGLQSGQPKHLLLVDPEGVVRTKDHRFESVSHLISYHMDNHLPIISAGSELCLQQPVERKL

Sequence of SLA (Homo sapiens) (Q13239 79-180): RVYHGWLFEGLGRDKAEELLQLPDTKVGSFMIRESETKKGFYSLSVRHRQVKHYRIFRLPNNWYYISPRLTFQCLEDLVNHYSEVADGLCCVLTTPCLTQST
Sequence of PLCG2-NC (Homo sapiens) (P16885 527-740): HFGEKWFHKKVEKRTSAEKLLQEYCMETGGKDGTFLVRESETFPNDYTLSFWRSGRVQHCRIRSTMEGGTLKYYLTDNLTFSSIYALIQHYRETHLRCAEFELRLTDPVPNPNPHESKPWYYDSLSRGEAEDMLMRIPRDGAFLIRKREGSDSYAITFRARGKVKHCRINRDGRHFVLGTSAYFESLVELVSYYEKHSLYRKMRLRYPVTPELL
Sequence of TENC1 (Homo sapiens) (Q63HR2 1135-1252): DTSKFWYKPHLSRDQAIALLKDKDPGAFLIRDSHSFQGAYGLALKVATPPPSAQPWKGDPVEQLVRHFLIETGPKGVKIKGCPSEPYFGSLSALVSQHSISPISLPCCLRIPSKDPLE
Sequence of PIK3R2-N (Homo sapiens) (O00459 325-721): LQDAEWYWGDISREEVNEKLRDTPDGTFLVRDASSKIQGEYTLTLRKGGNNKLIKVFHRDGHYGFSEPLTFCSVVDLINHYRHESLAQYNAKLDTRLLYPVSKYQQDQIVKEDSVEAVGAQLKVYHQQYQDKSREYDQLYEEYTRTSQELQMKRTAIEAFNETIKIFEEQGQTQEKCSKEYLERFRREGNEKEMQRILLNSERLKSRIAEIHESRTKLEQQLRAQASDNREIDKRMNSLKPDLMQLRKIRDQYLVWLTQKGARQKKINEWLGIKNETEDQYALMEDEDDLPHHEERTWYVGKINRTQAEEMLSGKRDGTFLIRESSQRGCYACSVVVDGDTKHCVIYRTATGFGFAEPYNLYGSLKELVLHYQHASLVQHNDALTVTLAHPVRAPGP
Sequence of SH2B3 (Homo sapiens) (Q9UQQ2 359-467): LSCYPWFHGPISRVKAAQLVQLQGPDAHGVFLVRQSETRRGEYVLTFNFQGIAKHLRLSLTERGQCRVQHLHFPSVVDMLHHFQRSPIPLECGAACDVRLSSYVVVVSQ
Sequence of SHD (Homo sapiens) (Q96IW2 235-340): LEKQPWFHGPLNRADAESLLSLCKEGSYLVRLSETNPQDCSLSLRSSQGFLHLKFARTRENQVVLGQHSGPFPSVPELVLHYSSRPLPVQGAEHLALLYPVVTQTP
Sequence of TNS3 (Homo sapiens) (Q68CZ2 1167-1287): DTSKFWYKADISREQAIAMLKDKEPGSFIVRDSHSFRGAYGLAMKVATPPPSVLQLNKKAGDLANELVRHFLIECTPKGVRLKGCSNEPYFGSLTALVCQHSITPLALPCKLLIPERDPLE
Sequence of SHF (Homo sapiens) (Q7M4L6 318-423): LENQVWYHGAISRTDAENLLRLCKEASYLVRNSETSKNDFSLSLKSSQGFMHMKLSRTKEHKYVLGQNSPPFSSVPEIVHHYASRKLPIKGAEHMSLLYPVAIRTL
Sequence of PLCG1-C (Homo sapiens) (P19174 545-761): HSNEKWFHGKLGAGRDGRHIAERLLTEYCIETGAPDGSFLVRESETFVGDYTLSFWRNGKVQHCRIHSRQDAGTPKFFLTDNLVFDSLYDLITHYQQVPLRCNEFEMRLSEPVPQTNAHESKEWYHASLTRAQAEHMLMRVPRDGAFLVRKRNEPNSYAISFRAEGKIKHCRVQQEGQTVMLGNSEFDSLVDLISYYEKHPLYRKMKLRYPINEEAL
Sequence of GRB7 (Homo sapiens) (Q14451 426-532): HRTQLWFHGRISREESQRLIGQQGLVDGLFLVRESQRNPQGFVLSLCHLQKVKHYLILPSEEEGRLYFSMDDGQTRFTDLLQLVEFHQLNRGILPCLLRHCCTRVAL
Sequence of NCK2 (Homo sapiens) (O43639 280-380): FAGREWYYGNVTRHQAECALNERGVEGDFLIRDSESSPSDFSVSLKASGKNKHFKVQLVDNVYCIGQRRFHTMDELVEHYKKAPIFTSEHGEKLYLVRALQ
Sequence of BMX (Homo sapiens) (P51813 291-397): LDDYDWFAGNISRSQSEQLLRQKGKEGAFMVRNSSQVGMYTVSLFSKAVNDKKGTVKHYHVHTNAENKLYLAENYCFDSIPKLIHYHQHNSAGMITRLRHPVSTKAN
Sequence of SUPT6H (Homo sapiens) (Q7KZ85 1320-1436): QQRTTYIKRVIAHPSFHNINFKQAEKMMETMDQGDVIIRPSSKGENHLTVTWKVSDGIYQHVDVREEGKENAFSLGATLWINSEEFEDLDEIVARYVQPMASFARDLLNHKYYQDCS
Sequence of PTPN6-C (Homo sapiens) (P29350 1-218): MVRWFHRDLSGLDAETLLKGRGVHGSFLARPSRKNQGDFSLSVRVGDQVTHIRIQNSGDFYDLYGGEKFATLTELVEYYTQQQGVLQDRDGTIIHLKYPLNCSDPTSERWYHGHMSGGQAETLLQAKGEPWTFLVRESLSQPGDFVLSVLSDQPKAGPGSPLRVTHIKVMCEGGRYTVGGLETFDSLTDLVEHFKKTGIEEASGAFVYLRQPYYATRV
Sequence of RASA1-N (Homo sapiens) (P20936 176-446): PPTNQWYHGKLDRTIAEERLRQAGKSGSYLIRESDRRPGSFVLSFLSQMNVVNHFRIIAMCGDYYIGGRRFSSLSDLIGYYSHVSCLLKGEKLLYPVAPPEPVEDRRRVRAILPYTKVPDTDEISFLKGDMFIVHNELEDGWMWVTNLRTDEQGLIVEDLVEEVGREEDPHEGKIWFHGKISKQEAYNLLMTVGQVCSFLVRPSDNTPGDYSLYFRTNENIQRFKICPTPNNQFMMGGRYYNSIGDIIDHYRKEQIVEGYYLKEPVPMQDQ
Sequence of ITK (Homo sapiens) (Q08881 234-343): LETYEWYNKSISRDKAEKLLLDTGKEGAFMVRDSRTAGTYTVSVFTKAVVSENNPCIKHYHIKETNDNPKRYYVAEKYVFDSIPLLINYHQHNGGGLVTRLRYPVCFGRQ
Sequence of SH2B2 (Homo sapiens) (O14492 412-520): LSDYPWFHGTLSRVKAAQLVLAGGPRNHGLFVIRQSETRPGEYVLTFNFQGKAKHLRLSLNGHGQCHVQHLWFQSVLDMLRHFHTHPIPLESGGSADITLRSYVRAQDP
Sequence of VAV1 (Homo sapiens) (P15498 666-770): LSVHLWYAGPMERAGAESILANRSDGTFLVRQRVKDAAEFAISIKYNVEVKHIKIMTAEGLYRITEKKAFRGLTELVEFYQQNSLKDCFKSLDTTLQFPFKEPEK

As for …pYEEMRAFQ, the apparent Kd (screen) with SH2B3 (Homo sapiens) was 1.52 µM; with PIK3R3-NC (Homo sapiens) [1], 0.01 µM; with SRC (Homo sapiens) it was 0.999 µM.

Consider …pYLIPQQGFd, for which the apparent Kd (screen) in the series with SYK-C (Homo sapiens) is 0.934 µM; with SLA (Homo sapiens) [2], 2 µM; with PIK3R1-NC (Homo sapiens) [3], 0.175 µM; with SHC1-PTB (Homo sapiens) [4], 0.628 µM; with SHC2-PTB (Homo sapiens) [5] it was 0.664 µM; with PLCG1-C (Homo sapiens), 2 µM.

Turning to …pYLVPQQGF, the apparent Kd (screen) in the series with SYK-NC (Homo sapiens) is 0.372 µM; with SLA (Homo sapiens) [6], 2 µM; in the series with SH2B2 (Homo sapiens), 2 µM; in the series with ITK (Homo sapiens) it was 0.445 µM; with SUPT6H (Homo sapiens), 0.912 µM; with PIK3R3-NC (Homo sapiens) [7] it was 0.527 µM. Also, the apparent Kd (screen) in the series with RASA1-N (Homo sapiens) was 2 µM; in the series with TENC1 (Homo sapiens), 2 µM; with VAV1 (Homo sapiens) it was 2 µM; in the series with PIK3R1-NC (Homo sapiens) [8] it was 1.64 µM; with NCK2 (Homo sapiens), 2 µM; with SHC2-PTB (Homo sapiens) [9], 2 µM. Further, in the series with PIK3R2-N (Homo sapiens), the apparent Kd (screen) was 1.95 µM.

With …pYWDQDPPE, the apparent Kd (screen) with GRB7 (Homo sapiens) was 0.253 µM; with PLCG2-NC (Homo sapiens), 0.263 µM; with SHF (Homo sapiens), 2 µM; in the series with TNS3 (Homo sapiens), 1.29 µM; with SHD (Homo sapiens), 2 µM; with SHC1-PTB (Homo sapiens) [10], 0.614 µM. Moreover, the apparent Kd (screen) with PTPN6-C (Homo sapiens) and in the series with BMX (Homo sapiens) was 2 µM each time.
